The target of the series is T1, IRF4 DBD (human, UniProt Q15306 20-139).
T1 sequence: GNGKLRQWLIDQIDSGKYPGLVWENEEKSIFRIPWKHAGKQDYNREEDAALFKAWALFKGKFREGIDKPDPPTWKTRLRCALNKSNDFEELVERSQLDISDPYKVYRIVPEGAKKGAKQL
Description: X-ray crystallography (native P/S SAD); three IRF4 DBD molecules on one ISRE; DNA:protein 1.2:1 mixed before crystallization; Crystallization complex: protein in 20 mM Tris-HCl pH 8, 500 mM NaCl, 0.5 mM TCEP (gel-filtration buffer); DNA:protein 1.2:1, 1 h at 277 K; crystallization conditions not in material. To be noted: protein: recombinant; tags: N-terminal 6xHis; chain copies: 3; 5' overhang 1 nt on each strand (A / T), 20 bp duplex.

The source of these data is publication PMC8248823, “Phosphorus and sulfur SAD phasing of the nucleic acid-bound DNA-binding domain of interferon regulatory factor 4”.

B1: ISRE 21-mer (dsDNA)
DNA 1: AATAAAAGAAACCGAAAGTAA
DNA 2: TTTACTTTCGGTTTCTTTTAT
For B1, the binding result is “binds”.
